These results are taken from patent US20150017095A1 (AbbVie / Abbott, published 2015).

Test [1] deals with T1, Recombinant Human IL-17 (human, UniProt Q16552 20-155, limits assumed).
T1 construct: also called IL-17A
The experiment in a line: direct bind ELISA, antigen coated on plate (N-terminal VD). The procedure: (§1) Enzyme Linked Immunosorbent Assays to screen for antibodies that bind a desired target antigen were performed as follows. High bind ELISA plates (Corning Costar #3369, Acton, Mass.) were coated with 100 μL/well of 10 μg/ml of desired target antigen (R&D Systems, Minneapolis, Minn.) or desired target antigen extra-cellular domain/FC fusion protein (R&D Systems, Minneapolis, Minn.) or monoclonal mouse anti-polyHistidine antibody (R&D Systems # MAB050, Minneapolis, Minn.) in phosphate buffered saline (10×PBS, Abbott Bioresearch Center, Media Prep# MPS-073, Worcester, Mass.) overnight at 4° C. Plates were washed four times with PBS containing 0.02% Tween 20. Plates were blocked by the addition of 300 μL/well blocking solution (non-fat dry milk powder, various retail suppliers, diluted to 2% in PBS) for ½ hour at room temperature. Plates were washed four times after blocking with PBS containing 0.02% Tween 20.
(§2) Plates were washed 4 times with PBS containing 0.02% Tween 20.
(§3) One hundred microliters of enhanced TMB solution (Neogen Corp. #308177, K Blue, Lexington, Ky.) was added to each well and incubated for 10 minutes at room temperature. The reaction was stopped by the addition of 50 μL 1N sulphuric acid.
A general note: ELISA stands for enzyme-linked immunosorbent assay.

The target in test [2] is T1, Recombinant Human IL-17. The test is described as follows: BIACORE SPR, DVD-Ig captured, antigen in flow (N-terminal VD). The protocol:
(§4) The BIACORE assay (Biacore, Inc, Piscataway, N.J.) determines the affinity of antibodies or DVD-Ig with kinetic measurements of on-rate and off-rate constants. […] All chemicals are obtained from Biacore® AB (Uppsala, Sweden) or otherwise from a different source as described in the text. For example, approximately 5000 RU of goat anti-mouse IgG, (Fcγ), fragment specific polyclonal antibody (Pierce Biotechnology Inc, Rockford, Ill.) diluted in 10 mM sodium acetate (pH 4.5) is directly immobilized across a CM5 research grade biosensor chip using a standard amine coupling kit according to manufacturer's instructions and procedures at 25 μg/ml. Unreacted moieties on the biosensor surface are blocked with ethanolamine. Modified carboxymethyl dextran surface in flowcell 2 and 4 is used as a reaction surface. Unmodified carboxymethyl dextran without goat anti-mouse IgG in flow cell 1 and 3 is used as the reference surface. For kinetic analysis, rate equations derived from the 1:1 Langmuir binding model are fitted simultaneously to association and dissociation phases of all eight injections (using global fit analysis) with the use of Biaevaluation 4.0.1 software. Purified antibodies or DVD-Ig are diluted in HEPES-buffered saline for capture across goat anti-mouse IgG specific reaction surfaces. Antibodies or DVD-Ig to be captured as a ligand (25 μg/m) are injected over reaction matrices at a flow rate of 5 μl/min. The association and dissociation rate constants, kₒₙ (M⁻¹s⁻¹) and koff (s⁻¹) are determined under a continuous flow rate of 25 μl/min. Rate constants are derived by making kinetic binding measurements at different antigen concentrations ranging from 10-200 nM. The equilibrium dissociation constant (M) of the reaction between antibodies or DVD-Igs and the target antigen is then calculated from the kinetic rate constants by the following formula: KD=koff/kₒₙ. Binding is recorded as a function of time and kinetic rate constants are calculated.
Background: Surface plasmon resonance follows binding to a sensor surface in real time, without labels.

The target in test [3] is T1, Recombinant Human IL-17. The test is described as follows: cell-based or functional assay.
The target of test [4] is T2, Recombinant Human IL-6 sR (human, UniProt P08887 20-358).
T2 construct: domain: IL-6 sR; Bought reagent; also called IL-6R
T2 sequence (looked up): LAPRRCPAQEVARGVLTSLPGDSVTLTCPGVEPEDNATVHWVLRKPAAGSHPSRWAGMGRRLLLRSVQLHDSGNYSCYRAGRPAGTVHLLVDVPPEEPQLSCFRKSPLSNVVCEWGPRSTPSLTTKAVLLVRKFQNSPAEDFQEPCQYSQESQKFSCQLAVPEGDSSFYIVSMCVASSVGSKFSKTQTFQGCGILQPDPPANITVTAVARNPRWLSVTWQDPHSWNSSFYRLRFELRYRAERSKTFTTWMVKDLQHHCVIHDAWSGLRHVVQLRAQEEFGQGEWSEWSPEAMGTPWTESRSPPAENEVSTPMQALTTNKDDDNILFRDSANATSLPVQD
The test is described as follows: direct bind ELISA, antigen coated on plate (N-terminal VD). The procedure:
as §1, §2, §3

In test [5] the target is T2, Recombinant Human IL-6 sR. The experiment in a line: BIACORE SPR, DVD-Ig captured, antigen in flow (N-terminal VD). The protocol: as §4
For test [6], the target named is T3, Recombinant Human IL-1β (human, UniProt P01584 117-269).
T3 construct: also called IL-1b; IL-1B
The experiment in a line: direct bind ELISA, antigen coated on plate (N-terminal VD). The protocol: as §1, §2, §3

The target of test [7] is T3, Recombinant Human IL-1β. The experiment in a line: cell-based or functional assay.
Test [8] addresses T3, Recombinant Human IL-1β. The test is described as follows: BIACORE SPR, DVD-Ig captured, antigen in flow (N-terminal VD). The procedure:
as §4

The target in test [9] is T3, Recombinant Human IL-1β. The test is described as follows: direct bind ELISA, antigen coated on plate (C-terminal VD). The protocol:
as §1, §2, §3

Test [10] has as its target T4, Recombinant Human VEGF (human, UniProt P15692-4 27-191).
T4 construct: also called VEGF165
The experiment in a line: BIACORE SPR, DVD-Ig captured, antigen in flow (C-terminal VD). The protocol: as §4

Test [11] concerns the target T4, Recombinant Human VEGF. The experiment in a line: direct bind ELISA, antigen coated on plate (C-terminal VD). The protocol: as §1, §2, §3
The target in test [12] is T1, Recombinant Human IL-17. The test is described as follows: BIACORE SPR, DVD-Ig captured, antigen in flow (C-terminal VD). The protocol:
as §4

Test [13] deals with T1, Recombinant Human IL-17. The test is described as follows: direct bind ELISA, antigen coated on plate (C-terminal VD). The protocol: as §1, §2, §3

T1 sequence (Q16552 20-155 limits assumed): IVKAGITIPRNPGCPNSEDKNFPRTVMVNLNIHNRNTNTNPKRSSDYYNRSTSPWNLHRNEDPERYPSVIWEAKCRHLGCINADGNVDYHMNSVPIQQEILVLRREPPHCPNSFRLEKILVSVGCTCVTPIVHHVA
T4 sequence (P15692 other isoform, or with tags, fused parts or gaps limits assumed): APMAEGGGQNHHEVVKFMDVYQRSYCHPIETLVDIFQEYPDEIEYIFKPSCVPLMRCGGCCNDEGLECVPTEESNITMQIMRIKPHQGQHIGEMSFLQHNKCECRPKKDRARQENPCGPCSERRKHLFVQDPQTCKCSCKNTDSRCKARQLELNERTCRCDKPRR

B1: DVD156 (IL-17A / PGE2 DVD-Ig) (bispecific antibody)
VH: EVQLVESGGGLVQPGGSLRLSCAASGFTFSNYWMNWVRQAPGKGLEWVAAINQDGSEKYYVGSVKGRFTISRDNAKNSLYLQMNSLRVEDTAVYYCVRDYYDILTDYYIHYWYFDLWGRGTLVTVSSASTKGPEVQLVQSGAEVKKPGASVKVSCKASGYTFTKYWLGWVRQAPGQGLEWMGDIYPGYDYTHYNEKFKDRVTLTTDTSTSTAYMELRSLRSDDTAVYYCARSDGSSTYWGQGTLVTVSS
VL: not shown
notes: Outer domain is AB029 (IL-17A), inner domain is AB048 (PGE2); also called VD156H; VD156L
The term EC50 denotes the concentration at which the effect is half-maximal. In general, Kd refers to the free concentration of one partner at which half of the binding sites on the other are occupied at equilibrium, for simple one-to-one binding. The koff is the rate constant with which the complex falls apart. The kon is the second-order rate constant of association. On to B1, for which the EC50 with Recombinant Human IL-17 [1] was found to be 0.62 nM. In addition, in the test with Recombinant Human IL-17 [2], the Kd is not above 0.0115 nM, the off-rate constant (koff) was less than 1e-06 s⁻¹ and the kon came out at 86800 M⁻¹ s⁻¹. Moreover, the “N-terminal VD IL-17 Neutralization Assay EC50 nM (IL-6 secretion by HS27 cells)” value with Recombinant Human IL-17 [3] stood at 0.2 nM.

B2: DVD152 (IL-6R / PGE2 DVD-Ig) (bispecific antibody)
VH: EVQLQESGPGLVRPSQTLSLTCTVSGYSITSDHAWSWVRQPPGRGLEWIGYISYSGITTYNPSLKSRVTMLRDTSKNQFSLRLSSVTAADTAVYYCARSLARTTAMDYWGQGSLVTVSSASTKGPEVQLVQSGAEVKKPGASVKVSCKASGYTFTKYWLGWVRQAPGQGLEWMGDIYPGYDYTHYNEKFKDRVTLTTDTSTSTAYMELRSLRSDDTAVYYCARSDGSSTYWGQGTLVTVSS
VL: DIQMTQSPSSLSASVGDRVTITCRASQDISSYLNWYQQKPGKAPKLLIYYTSRLHSGVPSRFSGSGSGTDFTFTISSLQPEDIATYYCQQGNTLPYTFGQGTKVEIKRTVAAPDVLMTQTPLSLPVTPGEPASISCTSSQNIVHSNGNTYLEWYLQKPGQSPQLLIYKVSNRFSGVPDRFSGSGSGTDFTLKISRVEAEDVGVYYCFQVSHVPYTFGGGTKVEIKR
notes: Outer domain is AB054 (IL-6R), inner domain is AB048 (PGE2); also called VD152H; VD152L
On to B2, for which the half-maximal effective concentration (EC50) in test [4] was 1.62 nM. For the same molecule, in test [5], the dissociation constant Kd was 0.275 nM, the koff is 0.000115 s⁻¹ and the on-rate constant (kon) came out at 420000 M⁻¹ s⁻¹.

B3: DVD158 (IL-1b / PGE2 DVD-Ig) (bispecific antibody)
VH: QVQLVESGGGVVQPGRSLRLSCAASGFTFSVYGMNWVRQAPGKGLEWVAIIWYDGDNQYYADSVKGRFTISRDNSKNTLYLQMNGLRAEDTAVYYCARDLRTGPFDYWGQGTLVTVSSASTKGPEVQLVQSGAEVKKPGASVKVSCKASGYTFTKYWLGWVRQAPGQGLEWMGDIYPGYDYTHYNEKFKDRVTLTTDTSTSTAYMELRSLRSDDTAVYYCARSDGSSTYWGQGTLVTVSS
VL: EIVLTQSPDFQSVTPKEKVTITCRASQSIGSSLHWYQQKPDQSPKLLIKYASQSFSGVPSRFSGSGSGTDFTLTINSLEAEDAAAYYCHQSSSLPFTFGPGTKVDIKRTVAAPDVLMTQTPLSLPVTPGEPASISCTSSQNIVHSNGNTYLEWYLQKPGQSPQLLIYKVSNRFSGVPDRFSGSGSGTDFTLKISRVEAEDVGVYYCFQVSHVPYTFGGGTKVEIKR
notes: Outer domain is AB032 (IL-1b), inner domain is AB048 (PGE2); also called VD158H; VD158L
Consider B3, for which the concentration for a half-maximal effect (EC50) with Recombinant Human IL-1β [6] came to 17.6 nM. Further, the “N-terminal VD IL-1β Neutralization Assay EC50 nM (IL-8 release by MRC5 cells)” value with Recombinant Human IL-1β [7] came to 0.11 nM. In addition, in the test with Recombinant Human IL-1β [8], the Kd worked out at 0.0387 nM, the off-rate (koff) came to 3.84e-05 s⁻¹ and the kon was 992000 M⁻¹ s⁻¹.

B4: DVD157 (PGE2 / IL-1b DVD-Ig) (bispecific antibody)
VH: EVQLVQSGAEVKKPGASVKVSCKASGYTFTKYWLGWVRQAPGQGLEWMGDIYPGYDYTHYNEKFKDRVTLTTDTSTSTAYMELRSLRSDDTAVYYCARSDGSSTYWGQGTLVTVSSASTKGPQVQLVESGGGVVQPGRSLRLSCAASGFTFSVYGMNWVRQAPGKGLEWVAIIWYDGDNQYYADSVKGRFTISRDNSKNTLYLQMNGLRAEDTAVYYCARDLRTGPFDYWGQGTLVTVSS
VL: DVLMTQTPLSLPVTPGEPASISCTSSQNIVHSNGNTYLEWYLQKPGQSPQLLIYKVSNRFSGVPDRFSGSGSGTDFTLKISRVEAEDVGVYYCFQVSHVPYTFGGGTKVEIKRTVAAPEIVLTQSPDFQSVTPKEKVTITCRASQSIGSSLHWYQQKPDQSPKLLIKYASQSFSGVPSRFSGSGSGTDFTLTINSLEAEDAAAYYCHQSSSLPFTFGPGTKVDIKR
notes: Outer domain is AB048 (PGE2), inner domain is AB032 (IL-1b); also called VD157H; VD157L
B4: the “C-terminal VD IL-1β Neutralization Assay EC50 nM (IL-8 release by MRC5 cells)” value in the test with Recombinant Human IL-1β [7] stood at 3.22 nM. Further, in the test with Recombinant Human IL-1β [9], the EC50 stood at 2480 nM.

B5: DVD161 (PGE2 / VEGF DVD-Ig) (bispecific antibody)
VH: EVQLVQSGAEVKKPGASVKVSCKASGYTFTKYWLGWVRQAPGQGLEWMGDIYPGYDYTHYNEKFKDRVTLTTDTSTSTAYMELRSLRSDDTAVYYCARSDGSSTYWGQGTLVTVSSASTKGPEVQLVESGGGLVQPGGSLRLSCAASGYTFTNYGMNWVRQAPGKGLEWVGWINTYTGEPTYAADFKRRFTFSLDTSKSTAYLQMNSLRAEDTAVYYCAKYPHYYGSSHWYFDVWGQGTLVTVSS
VL: DVLMTQTPLSLPVTPGEPASISCTSSQNIVHSNGNTYLEWYLQKPGQSPQLLIYKVSNRFSGVPDRFSGSGSGTDFTLKISRVEAEDVGVYYCFQVSHVPYTFGGGTKVEIKRTVAAPDIQMTQSPSSLSASVGDRVTITCSASQDISNYLNWYQQKPGKAPKVLIYFTSSLHSGVPSRFSGSGSGTDFTLTISSLQPEDFATYYCQQYSTVPWTFGQGTKVEIKR
notes: Outer domain is AB048 (PGE2), inner domain is AB014 (VEGF); also called VD161H; VD161L
With B5, in the test with Recombinant Human VEGF [10], the Kd turned out to be 0.755 nM, the off-rate constant (koff) is 0.000209 s⁻¹ and the kon was found to be 277000 M⁻¹ s⁻¹. The 50% effective concentration (EC50) with Recombinant Human VEGF [11] turned out to be 391 nM.

B6: DVD155 (PGE2 / IL-17A DVD-Ig) (bispecific antibody)
VH: EVQLVQSGAEVKKPGASVKVSCKASGYTFTKYWLGWVRQAPGQGLEWMGDIYPGYDYTHYNEKFKDRVTLTTDTSTSTAYMELRSLRSDDTAVYYCARSDGSSTYWGQGTLVTVSSASTKGPEVQLVESGGGLVQPGGSLRLSCAASGFTFSNYWMNWVRQAPGKGLEWVAAINQDGSEKYYVGSVKGRFTISRDNAKNSLYLQMNSLRVEDTAVYYCVRDYYDILTDYYIHYWYFDLWGRGTLVTVSS
VL: not shown
notes: Outer domain is AB048 (PGE2), inner domain is AB029 (IL-17A); also called VD155H; VD155L
For the molecule B6, in the test with Recombinant Human IL-17 [12], the Kd came to 3.37 nM, the koff was found to be 0.000125 s⁻¹ and the kon is 37000 M⁻¹ s⁻¹. Besides, in the test with Recombinant Human IL-17 [13], the EC50 stood at 248 nM. Also, the “C-terminal VD IL-17 Neutralization Assay EC50 nM (IL-6 secretion by HS27 cells)” value in the test with Recombinant Human IL-17 [3] worked out at 5.7e-05 nM.
